From article PMC11554844, “BEACH domain proteins function as cargo-sorting adaptors in secretory and endocytic pathways” (The Journal of Cell Biology, 2024)

What was measured:
Test in all cases: pull-down; GST-CTLA4 (201–215) immobilised on glutathione-sepharose beads, incubated overnight at 4°C with purified protein (1 µg MBP fusion, 1 µg NBEAL2, 0.2 µg LRBA, or purified 3xFlag-EGFP-NBEAL2 fragment); washed six times in 50 mM Tris-HCl pH 7.4, 150 mM NaCl, 1% Triton X-100; detected by blot (anti-NBEAL2, anti-LRBA, anti-Flag, anti-MBP)
Conditions in all cases: both partners purified
[1] = target: T1, Purified full-length untagged LRBA (human, UniProt P50851-1 1-2863)
T1 construct: LRBA, human; also called 3xFlag-EGFP-SUMOstar-LRBA after SUMOstar protease; source: FreeStyle 293-F, transiently transfected, purified (GFP-Trap agarose, eluted with SUMOstar protease); not shown: 3xFlag, N-terminal, cleaved; EGFP, N-terminal, cleaved; SUMOstar, N-terminal, cleaved

[2] = target: T2, Purified full-length untagged NBEAL2 (human, UniProt Q6ZNJ1-1 1-2754)
T2 construct: NBEAL2, human; also called 3xFlag-EGFP-SUMOstar-NBEAL2 after SUMOstar protease; source: FreeStyle 293-F, transiently transfected, purified (GFP-Trap agarose, eluted with SUMOstar protease); not shown: 3xFlag, N-terminal, cleaved; EGFP, N-terminal, cleaved; SUMOstar, N-terminal, cleaved

[3] = target: T3, 3xFlag-EGFP-NBEAL2(1792-2754) (human, UniProt Q6ZNJ1-1 1792-2754)
T3 construct: NBEAL2, human, C-terminal fragment with the PH-BEACH-WD40 domains; The legend's upper limit 2794 differs from the plasmid's name; also called C-terminal fragment of NBEAL2; C-terminal (PH-BEACH-WD40 domains) fragment of NBEAL2; source: purified; not shown: 3xFlag, N-terminal, kept; EGFP, N-terminal, kept

Measured: binding result

T2 sequence (Q6ZNJ1 whole entry): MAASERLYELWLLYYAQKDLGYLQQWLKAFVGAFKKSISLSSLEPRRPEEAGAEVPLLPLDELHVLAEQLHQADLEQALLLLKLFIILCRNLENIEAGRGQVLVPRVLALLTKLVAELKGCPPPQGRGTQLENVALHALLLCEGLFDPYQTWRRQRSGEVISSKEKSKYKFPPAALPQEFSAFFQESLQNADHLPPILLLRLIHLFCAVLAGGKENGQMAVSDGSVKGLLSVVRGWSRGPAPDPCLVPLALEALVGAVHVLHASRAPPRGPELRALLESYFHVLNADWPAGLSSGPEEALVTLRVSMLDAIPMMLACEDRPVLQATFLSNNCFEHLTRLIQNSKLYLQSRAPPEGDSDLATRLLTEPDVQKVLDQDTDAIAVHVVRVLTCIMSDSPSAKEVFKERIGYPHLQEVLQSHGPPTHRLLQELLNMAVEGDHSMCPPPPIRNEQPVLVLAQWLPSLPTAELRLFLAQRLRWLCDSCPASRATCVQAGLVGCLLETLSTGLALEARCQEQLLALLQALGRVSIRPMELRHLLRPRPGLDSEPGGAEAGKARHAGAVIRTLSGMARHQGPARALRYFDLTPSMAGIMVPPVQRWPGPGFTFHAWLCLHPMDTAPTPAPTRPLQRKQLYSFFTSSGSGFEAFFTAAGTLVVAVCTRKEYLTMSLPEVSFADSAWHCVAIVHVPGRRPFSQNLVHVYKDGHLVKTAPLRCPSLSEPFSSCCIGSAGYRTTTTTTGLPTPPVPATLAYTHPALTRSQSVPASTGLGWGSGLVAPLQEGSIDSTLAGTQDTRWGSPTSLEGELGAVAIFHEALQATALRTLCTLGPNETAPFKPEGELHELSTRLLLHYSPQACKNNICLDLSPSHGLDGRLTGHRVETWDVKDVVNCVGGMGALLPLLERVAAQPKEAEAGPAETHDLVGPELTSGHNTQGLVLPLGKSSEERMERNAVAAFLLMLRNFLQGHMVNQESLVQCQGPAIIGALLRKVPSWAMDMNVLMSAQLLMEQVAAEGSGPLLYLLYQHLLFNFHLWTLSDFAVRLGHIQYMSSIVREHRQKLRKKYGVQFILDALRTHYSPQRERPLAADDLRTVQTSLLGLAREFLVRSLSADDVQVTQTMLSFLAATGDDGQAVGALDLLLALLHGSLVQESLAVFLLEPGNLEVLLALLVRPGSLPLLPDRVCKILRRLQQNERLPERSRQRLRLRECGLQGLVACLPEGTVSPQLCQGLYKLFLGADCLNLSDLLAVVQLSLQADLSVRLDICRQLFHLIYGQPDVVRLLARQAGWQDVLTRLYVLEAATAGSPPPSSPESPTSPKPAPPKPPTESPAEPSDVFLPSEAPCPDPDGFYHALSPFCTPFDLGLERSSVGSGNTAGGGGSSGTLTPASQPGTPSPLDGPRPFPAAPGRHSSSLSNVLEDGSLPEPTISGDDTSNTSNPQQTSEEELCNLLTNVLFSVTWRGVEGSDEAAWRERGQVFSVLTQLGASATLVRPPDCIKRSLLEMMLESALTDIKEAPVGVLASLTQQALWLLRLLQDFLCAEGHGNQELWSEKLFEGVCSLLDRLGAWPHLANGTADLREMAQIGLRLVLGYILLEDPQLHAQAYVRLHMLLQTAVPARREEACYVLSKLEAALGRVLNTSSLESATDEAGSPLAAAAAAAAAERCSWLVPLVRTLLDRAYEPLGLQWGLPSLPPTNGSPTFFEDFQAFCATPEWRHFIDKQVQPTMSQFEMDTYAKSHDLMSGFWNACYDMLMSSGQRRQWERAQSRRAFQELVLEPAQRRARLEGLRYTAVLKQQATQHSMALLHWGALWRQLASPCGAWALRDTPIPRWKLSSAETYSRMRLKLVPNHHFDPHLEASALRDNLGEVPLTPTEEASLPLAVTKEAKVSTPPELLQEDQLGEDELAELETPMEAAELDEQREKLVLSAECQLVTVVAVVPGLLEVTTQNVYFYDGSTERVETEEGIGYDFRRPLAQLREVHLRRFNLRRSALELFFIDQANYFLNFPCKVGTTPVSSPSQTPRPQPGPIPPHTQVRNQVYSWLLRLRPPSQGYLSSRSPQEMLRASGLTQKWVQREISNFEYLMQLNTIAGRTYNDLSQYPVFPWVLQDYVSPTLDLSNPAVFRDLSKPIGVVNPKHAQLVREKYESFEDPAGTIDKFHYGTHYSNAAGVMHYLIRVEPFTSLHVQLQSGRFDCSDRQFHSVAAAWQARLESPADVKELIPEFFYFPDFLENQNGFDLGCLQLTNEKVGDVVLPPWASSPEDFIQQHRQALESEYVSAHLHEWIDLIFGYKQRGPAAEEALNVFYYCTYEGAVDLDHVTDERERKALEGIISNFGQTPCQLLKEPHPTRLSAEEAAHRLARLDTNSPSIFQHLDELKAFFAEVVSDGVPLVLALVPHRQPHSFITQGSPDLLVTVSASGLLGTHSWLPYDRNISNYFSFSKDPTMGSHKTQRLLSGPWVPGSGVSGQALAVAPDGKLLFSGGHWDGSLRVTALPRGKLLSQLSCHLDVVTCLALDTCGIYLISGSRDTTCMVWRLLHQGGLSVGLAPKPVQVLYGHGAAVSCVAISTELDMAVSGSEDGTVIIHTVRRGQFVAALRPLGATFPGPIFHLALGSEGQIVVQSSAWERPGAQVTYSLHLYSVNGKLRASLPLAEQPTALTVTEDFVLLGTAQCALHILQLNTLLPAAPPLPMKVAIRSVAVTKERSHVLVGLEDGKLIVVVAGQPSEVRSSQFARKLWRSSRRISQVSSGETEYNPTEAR
T3 sequence (Q6ZNJ1 1792-2754): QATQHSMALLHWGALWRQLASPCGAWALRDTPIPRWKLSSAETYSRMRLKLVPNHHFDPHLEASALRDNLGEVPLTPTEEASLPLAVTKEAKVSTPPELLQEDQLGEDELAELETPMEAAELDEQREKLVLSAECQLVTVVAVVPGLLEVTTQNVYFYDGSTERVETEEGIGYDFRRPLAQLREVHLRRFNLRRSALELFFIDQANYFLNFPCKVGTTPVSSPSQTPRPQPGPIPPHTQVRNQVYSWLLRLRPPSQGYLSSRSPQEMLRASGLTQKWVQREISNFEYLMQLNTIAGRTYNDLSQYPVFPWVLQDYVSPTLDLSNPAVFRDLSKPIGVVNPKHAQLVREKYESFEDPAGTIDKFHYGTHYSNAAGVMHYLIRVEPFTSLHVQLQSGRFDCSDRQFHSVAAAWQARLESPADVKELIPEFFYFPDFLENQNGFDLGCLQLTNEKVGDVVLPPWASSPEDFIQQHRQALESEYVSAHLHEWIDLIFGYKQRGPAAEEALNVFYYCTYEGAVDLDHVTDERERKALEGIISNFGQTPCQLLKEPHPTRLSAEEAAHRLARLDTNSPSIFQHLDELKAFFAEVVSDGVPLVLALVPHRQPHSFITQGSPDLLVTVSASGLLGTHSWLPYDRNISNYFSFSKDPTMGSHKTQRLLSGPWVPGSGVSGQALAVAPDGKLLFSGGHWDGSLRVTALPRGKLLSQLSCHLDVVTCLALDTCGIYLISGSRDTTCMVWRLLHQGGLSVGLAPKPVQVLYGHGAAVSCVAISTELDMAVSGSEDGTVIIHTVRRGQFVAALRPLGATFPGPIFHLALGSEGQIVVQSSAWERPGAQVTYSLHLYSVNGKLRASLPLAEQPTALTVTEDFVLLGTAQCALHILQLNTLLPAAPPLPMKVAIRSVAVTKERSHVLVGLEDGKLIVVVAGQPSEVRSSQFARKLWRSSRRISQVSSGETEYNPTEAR

B1: GST-CTLA4 (201–215) (domain or fragment, human, UniProt P16410 201-215, looked up)
chain: YVKMPPTEPECEKQF
notes: source: E. coli BL21(DE3), purified on Glutathione Sepharose 4B beads
binds: all assays above
